Results taken from patent US20200199244A1 (published 2020).

T1: Macaca fascicularis CD40 (Macaca fascicularis (cynomolgus monkey), UniProt P25942 21-277 (human entry))
T1 chain: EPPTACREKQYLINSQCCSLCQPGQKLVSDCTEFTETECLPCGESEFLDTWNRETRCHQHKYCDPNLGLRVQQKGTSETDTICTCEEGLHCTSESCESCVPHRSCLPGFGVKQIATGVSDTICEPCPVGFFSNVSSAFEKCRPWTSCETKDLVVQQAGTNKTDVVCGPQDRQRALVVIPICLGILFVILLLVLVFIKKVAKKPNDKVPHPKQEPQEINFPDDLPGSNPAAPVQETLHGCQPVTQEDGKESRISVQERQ


Tests used:
Macaca fascicularis CD40 = target: T1, Macaca fascicularis CD40; experiment: cell-based or functional assay
human CD40 [1] = target: human CD40 (human, UniProt P25942 21-277); experiment: cell-based or functional assay
human CD40 [2] = target: human CD40 (human, UniProt P25942 21-277); experiment: cell-based or functional assay; remark: listed apart in the source
[3] = target: T2, human CD40 expressed on stably transfected CHO-DG44 cells (human, UniProt P25942 21-277); experiment: CHO-CD40 cell RBA, competition with IZ-CD40L
T2 construct: also called CHO-CD40
Description: The mixture was incubated in the absence of light for 6 hours.

[4] = target: T3, human CD40 (BMS, CY24FEB06-01) (human, UniProt P25942 21-193); experiment: ELISA RBA, competition with IZ-CD40L;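 also: Neutravidin-coated 384-well plate, dAb–human CD40 complex bound for 2 h at room temperature, absorbance read at 450 nm after HCl stop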
T3 construct: Soluble reagent of the bead and ELISA RBA; It is detected with an anti-human IgG (Fc) mAb, so it may be a CD40-Ig fusion
Description: Clear walled High Bind, 384-well plates (Corning, UK) were coated with 25 μl of 1 μg/ml Neutravidin in 0.2 M carbonate-bicarbonate buffer, pH 9.4 overnight at 4° C. The following day, assay plates were washed with 0.1% (v/v) Tween PBS buffer, blocked with 1% (w/v) BSA in PBS for 1 hour at room temperature and washed again. […] Following washing of the assay plate, the dAb:human CD40 complex was incubated in the assay plate at room temperature for 2 hours with gentle agitation. […] Absorbance signal was measured using a SpectraMax® M5e plate reader (Molecular Devices) at 450 nm following neutralization with 1M HCl solution.

Row | Binder | hIZCD40L-driven Cyno B Cell Proliferation EC50 (Macaca fascicularis CD40) | hIZCD40L-driven Human B Cell Proliferation EC50 (human CD40 [1]) | EC50 [3] | also measured
1 | BMS3h-197 (other) VH: EVQLLESGGGLVQPGGSLRLSCAASGFTFGSAAMDWVRQAPGKGLEWVSSINDMGSNTYYADSVKGRFTISRDNSKNTLYLQMNSLRAEDTAVYYCAKQGGRFDYWGQGTLVTVSS | > 7000 nM | 360 nM | – | –
2 | DMS0686 BMS3h-56-258-(G4S)5-DOM7h-11-90 (bispecific antibody) EVQLLESGGGLVQPGGSLRLSCAASGFTFRDYEMWWVRQAPGKGLERVSAINPQGTRTYYADSVKGRFTISRDNSKNTLYLQMNSLRAEDTAVYYCAKLPFYFHEWGQGTLVTVSSGGGGSGGGGSGGGGSGGGGSGGGGSDIQMTQSPSSLSASVGDRVTITCRASRPIGTMLSWYQQKPGKAPKLLILAFSRLQSGVPSRFSGSGSGTDFTLTISNLQPEDFATYYCAQAGTHPTTFGQGTKVEIKR | – | – | – | ICAM-1 Cell Assay EC50 (nM), 10% bovine serum (human CD40 [2]): 48.3 nM; ICAM-1 Cell Assay EC50 (nM), 10% human serum (human CD40 [2]): 66.6 nM
3 | BMS3h-37 (other) VH: EVQLLESGGGLVQPGGSLRLSCAASGFTFEWYEMQWVRQAPGKGLEWVSAISGDGYRTYYADSVKGRFTISRDNSKNTLYLQMNSLRAEDTAVYYCAKELGYFDYWGQGTLVTVSS | > 7000 nM | 3400 nM | – | –
4 | BMS3h-37-4 (other, dAb, single VH) VH: EVQLLESGGGLVQPGGSLRLSCAASGFTFEWYEMQWVRKAPGKGLEWVSAISGDGYRTYYADSVKGRFTISRDNSKNTLYLQMNSLRAEDTAVYYCAKELGYFDYWGRGTLVTVSS | – | – | 45 nM | –
5 | BMS3h-37-2 (other, dAb, single VH) VH: EVQLLESGGGLVQPGGSLRLSCAASGFTFEWYEMQWVRRAPGKGLEWVSAISGDGYRTYYADSVKGRFTISRDNSKNTLYLQMNSLRAEDTAVYYCAKELGYFDYWGRGTLVTVSS | – | – | 32 nM | –
6 | BMS3h-198-2 (other, dAb, single VH) VH: EVQPLESGGGLVQPGGSLRLSCAASGFTFAGYEMWWVRQAPGKGLERISAISGSGGSTYYADSVKGRFTISRDDSKNTLYLQMNSLRAEDTAVYYCARDPYSFDYWGQGTLVTVSS | – | – | 115 nM | –
7 | BMS3h-38-5 (other, dAb, single VH) VH: EVQLLGSGGGLVQPGGSLRLSCAASGFTFEEEEMIWVRQAPGKGLEWVSAISGSGGSTYYADSVKGRFTISRDNSKNTLYLQMNSLRAEDTAVYYCGKEPFRFDYWGQGTLVTVSS | – | – | 1000 nM | –
8 | BMS3h-198-1 (other, dAb, single VH) VH: EVQLLESGGGLVQPGGSLRLSCAASGSTIAGYEMWWVRQAPGKGLERVSAISGSGGSTYYADSVKGRFTISRDDSKNTLYLQMNSLRAEDTAVYYCARDPYSFDYWGQGTLVTVSS | – | – | 70 nM | EC50 [4]: 12 nM
9 | BMS3h-41-3 (other, dAb, single VH) VH: EVQLLEPGGGLVQPGGSLRLSCAASGFTFTEYEMIWVRKAPGKGMEWVSSISGNGANTYYADSVKGRFTISRDNSKNMLYLQMNSLRAEDTAVYYCAKEPLRFGYWGQGTLVTVSS | – | – | 200 nM | –
10 | BMS3h-38-8 (other, dAb, single VH) VH: EVQLLESGGGLVQPGGSLRLSCAASGFTFEEEEMIWVRQAPGKGLEWISAISGSGGSTYYADSVKGRFTIHRDNSKNTLYLQMNSLRAEDTAVYYCSKEPFRFDYRGLGTLVTVSS | – | – | 2800 nM | –
11 | BMS3h-41-10 (other, dAb, single VH) VH: EVQLLESGVGLVQPGGSLRLSCAASGFTFTEYEMIWVRKAPGKGLEWVSSISGNGANTYYADSVKGRFTISRDNSKNTLYLQMNSLRAEDTAVYYCAKEPLRFDNWGQGTLVTVSS | – | – | 4300 nM | –
12 | BMS3h-37-11 (other, dAb, single VH) VH: EVQLLESGGGLVQPGGSLRLSCAASGFTFEWYEMQWVRKAPGKGLEWVSAISGDGYRTYYADSVKGRFTISRDNSKNTLYLQMNSLRAEDTAVYYCAKELGYFDYRGRGTLVTVSS | – | – | 27 nM | –
13 | BMS3h-41-3 (other) VH: EVQLLEPGGGLVQPGGSLRLSCAASGFTFTEYEMIWVRKAPGKGMEWVSSISGNGANTYYADSVKGRFTISRDNSKNMLYLQMNSLRAEDTAVYYCAKEPLRFGYWGQGTLVTVSS | > 7000 nM | 12 nM | – | –
14 | BMS3h-107 (other) VH: EVQLLESGGGLVQPGGSLRLSCAASGFTFSGYDMQWVRQAPGKGLEWVSTISASGVFTYYADSVKGRFTTSRDNSKNTLYLQMNSLRAEDTAVYYCAKYPNRFALNNFDYWGQGTLVTVSS | > 7000 nM | > 7000 nM | – | –
15 | BMS3h-56 (other) VH: EVQLLESGGGLVQPGGSLRLSCAASGFTFRDYEMWWVRQAPGKGLERVSAINPQGTRTYYADSVKGRFTISRDNSKNTLYLQMNSLRAEDTAVYYCAKLPFIFDYWGQGTLVTVSS | > 7000 nM | 713 nM | – | –
16 | BMS3h-56-5 (other) VH: EVQLLESGGGLVQPGGSLRLSCAASGFTFRDYEMWWVRQAPGKGLERVSAINPQGTRTYYADSVMGRFTISRDNSKNTLYLQMNSLRAEDTAVYYCAKLPFTFDDWGQGTLVTVSS | > 7000 nM | 6 nM | – | –
17 | BMS3h-131 (other) VL: DIQMTQSPSSLSASVGDRVTITCRANSSILWALAWYQQKPGKAPKLLIESSSGLQSGVPSRFSGSGSGTDFTLTISSLQPEDFATYYCVQNAGWPGTFGQGTKVEIKR | > 7000 nM | 2700 nM | – | –
18 | BMS3h-131-2 (other) VL: DIQMTQSPSSLSASVGDRVTITCRADSSILWALAWYQQKPGKAPKLLIESSSGLQSGVPSRFSGSGSGTDFTLTISSLQPEDFATYYCVQNAVWPGTFGQGTKVEIKR | > 7000 nM | 55 nM | – | –
19 | BMS3h-193-15 (other, dAb, single VK) VL: DIQMTQSPSSLSASVGDRVTITCRASRTIERRLNWYQQKPGKAPKLLIYLASRLQSGVPSRFSGSGSGTDFTLTISSLQPEDFATYYCHPYESPPLTFGQGTKVEIKR | – | – | 300 nM | –
20 | BMS3h-202-10 (other, dAb, single VH) VH: EVQLLESGGGLVQPGGSLRLSCAASGFTFPTAEMLWVRQAPGKGLEWVSSISASGGSTYYADSVKGRFTISRDNSKNTLYLQMNSLRAEDTAVYYCAKEPVYYVATFDYWGQGTLVTVSS | – | – | 7200 nM | –
21 | BMS3h-202-11 (other, dAb, single VH) VH: EVQLLESGGGLVQPGGSLRLSCAASGFTFPTAEMLWVRKAPGKGLEWVSSISASGGSTYYADSVKGRFTISRDNSKNTLYLQMNSLRAEDAAVYYCAKEPVSYVATFDYWGQGTLVTVSS | – | – | 8300 nM | –
22 | DMS0685 BMS3h-56-258-(G4S)3-DOM7h-11-90 (bispecific antibody) EVQLLESGGGLVQPGGSLRLSCAASGFTFRDYEMWWVRQAPGKGLERVSAINPQGTRTYYADSVKGRFTISRDNSKNTLYLQMNSLRAEDTAVYYCAKLPFYFHEWGQGTLVTVSSGGGGSGGGGSGGGGSDIQMTQSPSSLSASVGDRVTITCRASRPIGTMLSWYQQKPGKAPKLLILAFSRLQSGVPSRFSGSGSGTDFTLTISNLQPEDFATYYCAQAGTHPTTFGQGTKVEIKR | – | – | – | ICAM-1 Cell Assay EC50 (nM), 10% bovine serum (human CD40 [2]): 31.9 nM; ICAM-1 Cell Assay EC50 (nM), 10% human serum (human CD40 [2]): 62.4 nM
23 | BMS3h-198-3 (other, dAb, single VH) VH: EVQLLESGGGSVQPGGSLRLSCAATGSTFAGYEMWWVRQAPGKGLERVSAISGSGGSTYYADSVKGRFTISRDDSKNTLYLQMNSLRAEDTAVYYCARDPYSYDYWGQGTLVSVSS | – | – | 330 nM | –
24 | BMS3h-43 (other) VH: EVQLLESGGGLVQPGGSLRLSCTASGFTFNMYEMSWVRQAPGKGLEWVSGISRRGFTTYYADSVKGRFTISRDNSKNTLYLQMNSLRAEDTAVYYCAKEPITYAMRYARFDYWGQGTLVTVSS | > 7000 nM | 83 nM | – | –
25 | BMS3h-43-5 (other, dAb, single VH) VH: EVQLLESGGGLVQPGGSLRLSCTASGFTFNTYEMSWVRQAPGKGLEWVSGIGRRGFTTYYADSVKGRFTISRDNSKNTLYLQMNSLRAEDTAVYYCAKEPITYDLRYARFDYSGQGTLVTVSS | – | – | 90 nM | –
26 | BMS3h-43-3 (other, dAb, single VH) VH: EVQLLESGGGLVQPGGSLRLSCTASGFTFNMYEMSWVRQAPGKGLEWVSGISRRGFTTYYADSVKGRFTISRDNFKNTLYLQMNSLRAEDTAVYYCAKEPITYDMRYARFDYGGQGTLVTVSS | – | – | 320 nM | –
27 | BMS3h-106 (other) VH: EVQLLESGGGLVQPGGSLRLSCAASGFTFSTYHMQWVRQAPGKGLEWVSMIDADGLGTYYADSVKGRFTISRDNSKNTLYLQMNSLRAEDTAVYYCAKPGPQFGQFDYWGQGTLVTVSS | > 7000 nM | 437 nM | – | –
